The values below are quoted from earlier work in article PMC8232796.

Series [1] has as its target HIV-1 Gag p6 peptide p6 (Human immunodeficiency virus 1) (UniProt O93182).
The target of series [2] is Ubiquitin (Homo sapiens) (UniProt P0CG48).
Series [3] has the same target. The source holds these as a separate data set.
Series [4] has the same target. The source holds these as a separate data set.

Where two headings read alike, the source gives them in different places.

Sequence of Tsg101 UEV UEV (Q99816 1-148): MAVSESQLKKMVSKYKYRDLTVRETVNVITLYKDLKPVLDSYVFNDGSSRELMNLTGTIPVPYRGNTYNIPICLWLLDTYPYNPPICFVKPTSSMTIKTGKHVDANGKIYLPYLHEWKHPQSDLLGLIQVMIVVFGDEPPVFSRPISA
Sequence of hMms2 UEV (Q15819 2-145): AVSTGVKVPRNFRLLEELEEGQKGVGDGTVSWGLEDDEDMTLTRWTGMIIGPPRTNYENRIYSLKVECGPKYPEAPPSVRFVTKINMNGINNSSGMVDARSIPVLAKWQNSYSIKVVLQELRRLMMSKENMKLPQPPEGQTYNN
Sequence of UbcH5 (P51668 whole entry): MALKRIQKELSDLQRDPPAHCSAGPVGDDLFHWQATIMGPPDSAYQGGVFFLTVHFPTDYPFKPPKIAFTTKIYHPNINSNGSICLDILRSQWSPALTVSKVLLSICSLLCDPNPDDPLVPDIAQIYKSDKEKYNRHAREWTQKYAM

On to Tsg101 UEV UEV (from UniProt Q99816), for which the dissociation constant Kd in series [1] is 27 µM; in the series with Ubiquitin (Homo sapiens) [2] it was 500 µM.

With UbcH5 (from UniProt P51668), the dissociation constant (Kd) in the series with Ubiquitin (Homo sapiens) [3] is 300 µM.

In the case of hMms2 UEV (from UniProt Q15819), the Kd in the series with Ubiquitin (Homo sapiens) [4] was 100 µM.
